Patent publication US5273966

Assays:
[1] = biological target: high molecular weight binding protein (150K) in normal rat serum (rat); assay: radiolabelled IGF-1 incubated with serum; area under the curves of the high and low molecular weight peaks
[2] = biological target: high molecular weight binding protein (150K) in normal human serum (human); assay: as above

O-glycosylated IGF-1 (ligand) was tested, and the percent bound to the large molecular weight form compared to the authentic IGF-1 [1] was 50 to 60% and the percent bound to the large molecular weight form compared to the authentic IGF-1 [2] was 50 to 60%.
